1 protein from publication PMC12513983, “Backbone and sidechain ^1H, ^15N and ^13C resonance assignments of a multidrug efflux membrane protein using solution and solid-state NMR” (Biomolecular Nmr Assignments, 2025) can be followed below.

This series concerns the molecule itself. The series is described as follows: solid-state NMR (magic-angle spinning, 13C-detected resonance assignment); S64V-EmrE in POPC proteoliposomes, 25:1 lipid/EmrE monomer, pH 5.8; 2D NCA shows separate peaks for chain A and chain B.

B1: S64V-EmrE (natural protein, E. coli, UniProt P23895 1-110, looked up)
chain: MNPYIYLGGAILAEVIGTTLMKFSEGFTRLWPSVGTIICYCASFWLLAQTLAYIPTGIAYAIWVGVGIVLISLLSWGFFGQRLDLPAIIGMMLICAGVLIINLLSRSTPH
notes: also called EmrE mutant S64V; EmrE S64V
Consider B1, for which the binding result is “binds”.
